B1: THAP1; numbered along this chain (parent)
chain: MVQSCSAYGCKNRYDKDKPVSFHKFPLTRPSLCKEWEAAVRRKNFKPTKYSSICSEHFTPDCFKRECNNKLLKENAVPTIFLCTEPHDKKEDLLEPQEQLPPPPLPPPVSQVDAAIGLLMPPLQTPVNLSVFCDHNYTVEDTMHQRKRIHQLEQQVEKLRKKLKTAQQRCRRQERQLEKLKEVVHFQKEKDDVSERGYVILPNDYFEIVEVPA

Variants of: B1
Assay: THAP1 transcriptional activity (GFP+/GFP- enrichment relative to wild-type constructs) (ratio to WT); higher = more THAP1 activity (PSMB5 reporter activation)
Conditions: with PSMB5 promoter-GFP reporter
In short: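 Variants were counted by Illumina sequencing of genomic DNA amplicons from BFP+ cells sorted into GFP-bright and GFP-dim bins five days after lentiviral transduction, in duplicate at MOI ~0.3. The library changed each of residues 2–213 of human THAP1 to all 20 amino acids and was introduced into THAP1-knockout HEK-293T cells with mClover3 knocked in at endogenous PSMB5. Activity equals the replicate-mean bright/dim read fold change over the mean of wild-type synonymous constructs.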

THAP1 transcriptional activity of substitutions, site by site:
V209: L 0.773 | Y 0.755 | W 0.757 | S 0.634 | H 0.835 | C 0.679 | E 0.612 | M 0.587 | D 0.517 | T 0.765 | I 0.823 | Q 1.67 | K 0.98 | N 0.716 | F 0.531 | P 0.814 | R 0.953
I208: M 1.25 | F 0.98 | G 0.803 | A 0.838 | E 1.41 | K 0.59 | D 0.924 | W 0.755 | Q 0.835 | R 0.751 | P 0.675 | Y 1.14 | C 1.06 | N 0.926 | V 1.2 | S 1.17
P212: K 0.974 | W 0.968 | C 0.673 | F 0.548 | I 1.75 | Y 1.42 | S 1.34 | M 1.4 | H 2.31 | E 0.535 | V 1.99 | L 1.42 | G 0.939 | N 1.15 | R 0.594 | D 0.943 | Q 1.45
D204: I 0.437 | M 0.901 | S 1.82 | R 0.547 | H 0.501 | T 1.04 | L 1.04 | V 1.39 | Q 0.749 | P 0.777 | A 1.26 | W 0.525 | G 0.311 | K 0.75 | Y 0.63 | E 1.22 | C 0.753
A213: F 0.655 | E 0.81 | D 0.729 | H 0.644 | G 0.677 | C 0.884
F206: N 0.873 | V 1.41 | C 1.5 | I 1.27 | E 1.11 | Q 0.86 | S 1.09 | R 0.87 | W 1.27 | D 1.24 | K 1.08 | Y 1.21 | H 1.05 | P 0.832 | T 1.04
V211: H 1.29 | L 1.38 | R 0.811 | I 1.34 | S 1.03 | Y 0.843 | F 1.01 | N 0.965 | W 0.56 | T 0.876 | C 0.988 | G 0.936 | P 0.462
N203: F 0.728 | H 1.32 | Q 0.904 | R 0.497 | E 1.14 | S 1.54 | I 1.01 | M 0.934 | D 0.653 | T 1.15 | G 1.23 | W 0.535 | V 0.886 | P 0.855 | Y 1.02
Y205: Q 1.51 | N 0.989 | C 1.28 | E 1.09 | S 1.17 | G 1.84 | M 1.5 | K 0.717 | I 1.07 | A 1.86 | F 0.778 | V 0.976 | H 1.38 | R 0.621 | D 0.754 | W 2.45 | L 2.1 | P 0.805
E210: V 1.06 | M 0.913 | S 0.594 | D 1.07 | C 1.03 | Q 1.15 | L 0.744 | F 0.823 | P 0.35 | Y 1.39 | R 0.747 | T 1.08 | G 0.666 | W 0.686 | I 1.23 | A 0.354
E207: Q 1.02 | M 0.796 | G 0.488 | I 0.667 | C 1.11 | Y 1.02 | N 0.625 | L 1.2 | S 0.559 | V 1.29 | T 0.557 | R 0.5 | H 0.501 | F 0.867 | P 0.59 | D 0.615 | A 0.721
